The record followed here is publication PMC3433420.

Several values for one entry are separate records, joined by “and”; a condition that tells them apart may be missing. Equal values may be shown once.

Common to all, as to assay: peptide or protein array; SH2/PTB proteins spotted on aldehyde slides, rhodamine peptide titrated in buffer B (20 mM HEPES, 100 mM KCl, 0.1% Tween-20, 5 mM DTT, pH 7.8), 1 h at room temperature; replicate assays
Test [1] addresses SYK C-terminal SH2 domain (human).
The target in test [2] is LYN SH2 domain (human) (UniProt P07948).
Chain of LYN SH2 domain (human) (P07948 129-226): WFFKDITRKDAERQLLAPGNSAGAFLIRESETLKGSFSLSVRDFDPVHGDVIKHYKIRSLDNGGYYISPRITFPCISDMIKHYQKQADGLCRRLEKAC
The target in test [3] is LCK SH2 domain (human) (UniProt P06239).
Chain of LCK SH2 domain (human) (P06239 127-224): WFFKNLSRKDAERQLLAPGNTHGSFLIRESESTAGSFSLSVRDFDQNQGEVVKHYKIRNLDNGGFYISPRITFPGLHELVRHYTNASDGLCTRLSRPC
In test [4] the target is SH2D3A SH2 domain (human) (UniProt Q9BRG2).
Chain of SH2D3A SH2 domain (human) (Q9BRG2 15-114): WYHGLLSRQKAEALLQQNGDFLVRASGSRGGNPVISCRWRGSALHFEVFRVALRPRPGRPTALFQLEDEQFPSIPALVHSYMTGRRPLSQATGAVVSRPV
The target in test [5] is SH3BP2 SH2 domain (human) (UniProt P78314).
Chain of SH3BP2 SH2 domain (human) (P78314 457-555): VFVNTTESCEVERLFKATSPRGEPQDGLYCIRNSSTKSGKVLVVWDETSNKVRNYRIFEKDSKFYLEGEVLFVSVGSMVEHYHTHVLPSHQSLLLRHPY
Test [6] concerns the target NCK1 SH2 domain (human) (UniProt P16333).
Test [7] has as its target ABL2 SH2 domain (human) (UniProt P42684).
Test [8] addresses FGR SH2 domain (human) (UniProt P09769).
The target of test [9] is GRB7 SH2 domain (human) (UniProt Q14451).
Chain of GRB7 SH2 domain (human) (Q14451 431-527): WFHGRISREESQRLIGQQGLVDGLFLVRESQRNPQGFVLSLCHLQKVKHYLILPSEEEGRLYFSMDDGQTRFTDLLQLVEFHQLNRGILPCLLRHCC
In test [10] the target is TNS3 SH2 domain (human) (UniProt Q68CZ2).
Chain of TNS3 SH2 domain (human) (Q68CZ2 1172-1282): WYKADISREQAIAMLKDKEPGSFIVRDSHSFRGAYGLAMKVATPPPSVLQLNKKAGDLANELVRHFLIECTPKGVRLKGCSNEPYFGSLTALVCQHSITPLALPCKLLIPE
For test [11], the target named is PTPN11 tandem SH2 domains (human).
Test [12] deals with SH2D2A SH2 domain (human) (UniProt Q9NP31).
Chain of SH2D2A SH2 domain (human) (Q9NP31 95-186): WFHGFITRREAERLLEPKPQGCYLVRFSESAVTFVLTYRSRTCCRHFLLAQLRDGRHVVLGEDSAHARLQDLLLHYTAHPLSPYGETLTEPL
The target of test [13] is HCK SH2 domain (human) (UniProt P08631).
Chain of HCK SH2 domain (human) (P08631 144-241): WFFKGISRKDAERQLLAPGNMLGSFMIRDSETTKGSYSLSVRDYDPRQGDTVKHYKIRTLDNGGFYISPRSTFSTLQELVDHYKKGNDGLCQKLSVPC
The target in test [14] is SH2D1B SH2 domain (human) (UniProt O14796).
Chain of SH2D1B SH2 domain (human) (O14796 5-101): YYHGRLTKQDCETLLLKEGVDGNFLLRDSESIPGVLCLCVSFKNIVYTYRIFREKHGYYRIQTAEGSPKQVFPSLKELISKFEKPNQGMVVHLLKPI
Test [15] deals with BCAR3 SH2 domain (human) (UniProt O75815).
Chain of BCAR3 SH2 domain (human) (O75815 154-253): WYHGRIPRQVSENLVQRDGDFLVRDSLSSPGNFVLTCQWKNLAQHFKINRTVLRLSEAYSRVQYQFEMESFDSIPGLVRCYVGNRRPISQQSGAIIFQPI
The target of test [16] is SH2D3C SH2 domain (human) (UniProt Q8N5H7).
Chain of SH2D3C SH2 domain (human) (Q8N5H7 220-319): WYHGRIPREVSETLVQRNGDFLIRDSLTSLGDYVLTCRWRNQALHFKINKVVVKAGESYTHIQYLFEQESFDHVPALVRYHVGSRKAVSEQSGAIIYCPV
Test [17] concerns the target SH2D1A SH2 domain (human) (UniProt O60880).
The target in test [18] is ZAP70 C-terminal SH2 domain (human) (UniProt P43403).
Chain of ZAP70 C-terminal SH2 domain (human) (P43403 whole entry, the tested form may be a part): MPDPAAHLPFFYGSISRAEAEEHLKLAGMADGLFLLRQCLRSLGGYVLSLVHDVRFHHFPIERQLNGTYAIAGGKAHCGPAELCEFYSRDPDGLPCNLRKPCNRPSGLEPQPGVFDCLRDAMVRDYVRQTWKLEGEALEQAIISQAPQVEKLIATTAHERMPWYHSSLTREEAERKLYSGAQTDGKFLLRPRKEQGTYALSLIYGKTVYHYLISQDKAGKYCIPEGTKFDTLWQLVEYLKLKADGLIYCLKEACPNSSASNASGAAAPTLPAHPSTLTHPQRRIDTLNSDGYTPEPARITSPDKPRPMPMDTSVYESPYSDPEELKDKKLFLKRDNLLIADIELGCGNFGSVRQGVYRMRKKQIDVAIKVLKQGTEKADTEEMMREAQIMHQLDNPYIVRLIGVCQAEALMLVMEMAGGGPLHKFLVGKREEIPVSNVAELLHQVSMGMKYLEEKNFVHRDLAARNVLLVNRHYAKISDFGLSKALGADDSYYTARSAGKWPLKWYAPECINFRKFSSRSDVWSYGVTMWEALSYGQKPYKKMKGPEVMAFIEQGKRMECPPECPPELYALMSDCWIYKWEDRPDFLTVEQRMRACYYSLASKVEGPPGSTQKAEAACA
Test [19] concerns the target RASA1 N-terminal SH2 domain (human) (UniProt P20936).

Chain of SH2D1A SH2 domain (human) (O60880 6-104): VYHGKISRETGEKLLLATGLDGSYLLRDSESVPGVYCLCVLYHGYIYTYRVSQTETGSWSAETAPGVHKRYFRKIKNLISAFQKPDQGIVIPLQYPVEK
Chain of ABL2 SH2 domain (human) (P42684 173-263): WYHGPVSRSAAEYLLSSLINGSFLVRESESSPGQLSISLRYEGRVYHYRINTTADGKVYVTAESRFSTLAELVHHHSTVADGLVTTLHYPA
Chain of RASA1 N-terminal SH2 domain (human) (P20936 whole entry, the tested form may be a part): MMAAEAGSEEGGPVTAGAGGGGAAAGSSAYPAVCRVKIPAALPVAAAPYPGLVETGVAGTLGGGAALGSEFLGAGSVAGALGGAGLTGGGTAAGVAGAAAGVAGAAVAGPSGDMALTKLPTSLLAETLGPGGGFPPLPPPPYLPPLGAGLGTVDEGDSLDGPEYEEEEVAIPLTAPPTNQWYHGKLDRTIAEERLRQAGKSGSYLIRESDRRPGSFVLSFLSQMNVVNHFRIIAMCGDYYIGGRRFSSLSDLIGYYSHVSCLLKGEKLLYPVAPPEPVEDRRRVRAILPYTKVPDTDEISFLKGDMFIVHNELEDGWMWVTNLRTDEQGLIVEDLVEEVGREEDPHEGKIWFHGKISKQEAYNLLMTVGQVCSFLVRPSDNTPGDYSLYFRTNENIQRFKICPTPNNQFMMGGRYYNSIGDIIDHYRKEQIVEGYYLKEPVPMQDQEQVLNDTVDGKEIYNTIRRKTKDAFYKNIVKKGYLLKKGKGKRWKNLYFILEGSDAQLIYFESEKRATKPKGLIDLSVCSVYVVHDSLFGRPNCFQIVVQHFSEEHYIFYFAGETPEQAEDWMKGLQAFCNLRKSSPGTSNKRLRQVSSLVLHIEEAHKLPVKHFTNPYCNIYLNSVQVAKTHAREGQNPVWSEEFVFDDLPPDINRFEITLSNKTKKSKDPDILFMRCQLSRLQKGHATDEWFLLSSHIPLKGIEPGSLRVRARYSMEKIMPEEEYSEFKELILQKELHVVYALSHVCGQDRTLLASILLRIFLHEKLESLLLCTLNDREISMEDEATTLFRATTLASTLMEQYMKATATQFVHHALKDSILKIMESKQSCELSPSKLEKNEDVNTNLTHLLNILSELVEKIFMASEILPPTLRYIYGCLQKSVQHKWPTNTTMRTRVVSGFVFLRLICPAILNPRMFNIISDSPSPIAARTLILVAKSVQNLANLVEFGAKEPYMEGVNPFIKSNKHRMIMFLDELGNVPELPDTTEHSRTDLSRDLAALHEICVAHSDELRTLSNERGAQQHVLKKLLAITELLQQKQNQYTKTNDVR

As a reminder, the Kd is the concentration at which binding is half-saturated. Regarding “ErbB4 pY1262 phosphopeptide, rhodamine-labelled, for protein microarrays”, the equilibrium dissociation constant (Kd) in test [1] was 408 nM; in [2] it was 201 nM and 579 nM; in test [3] it was 214 nM and 375 nM; in [4], 177 nM and 402 nM; in test [5], 403 nM and 1470 nM; in test [6], 574 nM and 643 nM. Further, the dissociation constant Kd in test [7] was 60.6 nM and 306 nM; in test [8] it was 201 nM and 401 nM; in [9], 341 nM; in test [10] it was 373 nM and 742 nM; in test [11] it was 536 nM; in test [12], 1170 nM. Moreover, the dissociation constant (Kd) in [13] is 827 nM; in test [14], 612 nM; in [15] it was 610 nM and 1170 nM; in [16] it was 1440 nM and 1160 nM; in [17], 413 nM and 591 nM; in [18] it was 588 nM. Also, in [19], the dissociation constant (Kd) is 299 nM and 596 nM.
